Experimental findings from IntAct's records for PubMed 22135460 are described below.

B1: Late transcription coactivator (Enterobacteria phage T4), P13338 (parent)
chain: MTQFSLNDIRPVDETGLSEKELSIKKEKDEIAKLLDRQENGFIIEKMVEEFGMSYLEATTAFLEENSIPETQFAKFIPSGIIEKIQSEAIDENLLRPSVVRCEKTNTLDFLL

This test covers variants of B1. Conditions: with rpob_ecoli rpoB.
Regarding E70K, the “effect of a mutation on the interaction” value is recorded as “decreasing interaction strength”.
